One series relates to PuPuf4 (Pythium ultimum). The series is described as follows: MST. The settings on record: MST: 50 mM Tris pH 7.5, 150 mM NaCl, 10 mM MgCl2, 0.05% Tween 20, 25 C; EMSA: Beyotime EMSA/Gel-Shift Binding Buffer, 50 ng RNA, 25 C 30 min, 1% agarose gel.
Series [1] has as its system PuPuf4 R111A F147A K368A (Pythium ultimum). Description: MST. Particulars: MST: 50 mM Tris pH 7.5, 150 mM NaCl, 10 mM MgCl2, 0.05% Tween 20, 25 C; EMSA: Beyotime EMSA/Gel-Shift Binding Buffer, 50 ng RNA, 25 C 30 min, 1% agarose gel.

For “GCCCAGUGCUCUGAAUGUCAAAGUGAAGAGAUUCACCAAGCGGCGGGUAAACGCG [H68 rRNA]”, the Kd in the series with PuPuf4 (Pythium ultimum) was 240 nM; in series [1], 620 nM.
